Measurements reported in patent US20160185850A1 (ESBATECH AN ALCON BIOMEDICAL RESEARCH UNIT, published 2016).
Where a chain is given by its changes, count along the chain named. Like-named read-outs stand apart in the source and are kept apart here.

Tests used:
recombinant human TNFα [1] = target: T1, recombinant human TNFα (human, UniProt P01375 77-233); assay: ELISA on recombinant human TNFα
T1 construct: also called hTNFα; tumour necrosis factor alpha

recombinant human TNFα [2] = target: T1, recombinant human TNFα; assay: cell-based or functional assay
recombinant human TNFα [3] = target: T1, recombinant human TNFα; assay: cell-based or functional assay; remark: listed apart in the source
recombinant human TNFα [4] = target: T1, recombinant human TNFα; assay: ELISA dilution series on TNFα after 3 days at 37°C in pig vitreous body fluid (column 'vitreous body fluid')
recombinant human TNFα [5] = target: T1, recombinant human TNFα; assay: ELISA dilution series on TNFα after 3 days at 37°C in human urine (column 'urine')
recombinant human TNFα [6] = target: T1, recombinant human TNFα; assay: ELISA dilution series on TNFα after 3 days at 37°C in pig anterior chamber fluid (column 'anterior chamber fluid')
recombinant human TNFα [7] = target: T1, recombinant human TNFα; assay: ELISA dilution series on TNFα after 3 days at 37°C in human serum (column 'serum')
recombinant human TNFα [8] = target: T1, recombinant human TNFα; assay: cell-based or functional assay; remark: listed apart in the source
recombinant human TNFα [9] = target: T1, recombinant human TNFα; assay: ELISA dilution series on TNFα after 3 days at 37°C in assay buffer TBSTM (positive control)
recombinant human TNFα [10] = target: T1, recombinant human TNFα; assay: surface plasmon resonance (BIACore)
recombinant human TNFα [11] = target: T1, recombinant human TNFα; assay: ELISA on recombinant human TNFα; remark: listed apart in the source
recombinant human TNFα [12] = target: T1, recombinant human TNFα; assay: cell-based or functional assay; remark: listed apart in the source

T1 sequence (P01375 77-233 limits assumed): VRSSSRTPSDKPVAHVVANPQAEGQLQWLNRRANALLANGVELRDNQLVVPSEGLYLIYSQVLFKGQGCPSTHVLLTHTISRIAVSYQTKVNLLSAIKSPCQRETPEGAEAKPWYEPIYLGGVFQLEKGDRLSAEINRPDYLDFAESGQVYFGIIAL

B1: TB-A (scFv)
scFv: DIVMTQSPSSLSASVGDRVTLTCTASQSVSNDVVWYQQRPGKAPKLLIYSAFNRYTGVPSRFSGRGYGTDFTLTISSLQPEDVAVYYCQQDYNSPRTFGQGTKLEVKRGGGGSGGGGSGGGGSGGGGSQVQLVQSGAEVKKPGASVKVSCTASGYTFTHYGMNWVRQAPGKGLEWMGWINTYTGEPTYADKFKDRFTFSLETSASTVYMELTSLTSDDTAVYYCARERGDAMDYWGQGTLVTVSS
notes: also called TB-A scFv; TB-A scFv antibody
EC50 (read off the curve) (recombinant human TNFα [1]): ~3 nM | IC50, inhibition of human TNFα-induced cytotoxicity in mouse L929 fibroblasts (recombinant human TNFα [2]): 29.7 ng/mL | IC50, inhibition of human TNFα-induced cytotoxicity in mouse L929 fibroblasts (recombinant human TNFα [3]): 14.4 ng/mL | Kd (recombinant human TNFα [4]): 3.18 nM | Kd (recombinant human TNFα [5]): 4.14 nM | Kd (recombinant human TNFα [6]): 2.97 nM | Kd (recombinant human TNFα [7]): 3.62 nM | Relative potency: EC50X/EC50TB-A, KYM-1 cells (recombinant human TNFα [8]): 1 ratio EC50X/EC50TB-A | Relative potency: EC50X/EC50TB-A, L929 cells (recombinant human TNFα [8]): 1 ratio EC50X/EC50TB-A | Kd (recombinant human TNFα [9]): 3.39 nM | Kd (recombinant human TNFα [10]): 0.8 nM | koff (recombinant human TNFα [10]): 0.00044 s⁻¹ | kon (recombinant human TNFα [10]): 500000 M⁻¹ s⁻¹

B2: TB-A L_R65S (scFv)
scFv: B1 scFv with R65S
notes: also called TB-A L65
binding result (recombinant human TNFα [11]): binds

B3: TB-BA (scFv)
scFv (VL of TB-B - (GGGGS)4 linker - VH of TB-A): B1 scFv with M4L, L46R, R65S, Y67S, D70E
notes: Domain-shuffled variant: VL domain of TB-B with VH domain of TB-A
EC50 (read off the curve) (recombinant human TNFα [1]): ~700 nM

B4: TB-AB (scFv)
scFv (VL of TB-A - (GGGGS)4 linker - VH of TB-B): B1 scFv with T156S, K171Q, F196V, F198L, S199T, L200R, E201D, A204I, S205G
notes: Domain-shuffled variant: VL domain of TB-A with VH domain of TB-B
EC50 (read off the curve) (recombinant human TNFα [1]): ~3 nM

B5: TB-A Fab antibody (Fab, V domains shown)
VH: QVQLVQSGAEVKKPGASVKVSCTASGYTFTHYGMNWVRQAPGKGLEWMGWINTYTGEPTYADKFKDRFTFSLETSASTVYMELTSLTSDDTAVYYCARERGDAMDYWGQGTLVTVSS
VL: DIVMTQSPSSLSASVGDRVTLTCTASQSVSNDVVWYQQRPGKAPKLLIYSAFNRYTGVPSRFSGRGYGTDFTLTISSLQPEDVAVYYCQQDYNSPRTFGQGTKLEVKR
IC50, inhibition of human TNFα-induced cytotoxicity in mouse L929 fibroblasts (recombinant human TNFα [2]): 65.9 ng/mL | IC50 in the L929 assay, Fab format relative to scFv format of TB-A (recombinant human TNFα [12]): ~2 fold (IC50 Fab / IC50 scFv)

B6: TB-wt (scFv)
scFv: DIVMTQTPKFLLVSAGDRVTITCTASQSVSNDVVWYQQKPGQSPKMLMYSAFNRYTGVPDRFTGRGYGTDFTFTISSVQAEDLAVYFCQQDYNSPRTFGGGTKLEIKRGGGGSGGGGSGGGGSGGGGSQIQLVQSGPELKKPGETVKISCKASGYTFTHYGMNWVKQAPGKGLKWMGWINTYTGEPTYADDFKEHFAFSLETSASTVFLQINNLKNEDTATYFCARERGDAMDYWGQGTSVTVSS
IC50, inhibition of human TNFα-induced cytotoxicity in mouse L929 fibroblasts (recombinant human TNFα [3]): 161 ng/mL
